The text below walks through data of US20230192899A1 (published 2023).

Assay [1] deals with human CD47 on cells (human erythrocytes, MCF-7, BT-474) (human, UniProt Q08722 19-323). Kind of assay: cell-based or functional assay.
The target of assay [2] is T1, human CD47 protein (ELISA coat) (human, UniProt Q08722 19-139).
T1 construct: also called hCD47
In words: direct binding ELISA (FIG. 7C). Background: ELISA stands for enzyme-linked immunosorbent assay.

Assay [3] concerns the target human C-MET protein (ELISA coat) (human, UniProt P08581 25-932). In words: direct binding ELISA (FIG. 7C).
Assay [4] concerns the target T2, mouse membrane-presented CD47 on Tg32 mouse erythrocytes (mouse, UniProt Q61735 19-303).
T2 construct: whole, on cells
T2 sequence (looked up): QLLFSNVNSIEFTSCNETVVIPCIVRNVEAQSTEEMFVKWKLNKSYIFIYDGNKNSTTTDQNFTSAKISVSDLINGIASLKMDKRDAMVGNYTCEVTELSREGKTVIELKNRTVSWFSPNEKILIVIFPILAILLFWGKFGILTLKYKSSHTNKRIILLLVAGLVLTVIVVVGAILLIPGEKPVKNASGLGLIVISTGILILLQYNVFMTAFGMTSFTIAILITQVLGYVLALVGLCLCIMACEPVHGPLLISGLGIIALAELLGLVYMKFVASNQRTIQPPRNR
In words: flow cytometry on Tg32 mouse erythrocytes (FIG. 21). On the technique in general: In flow cytometry, cells or beads pass a laser one at a time.

Assay [5] has as its target T3, soluble human CD47 ectodomain protein (human, UniProt Q08722 19-139).
T3 construct: also called hCD47; huCD47
Kind of assay: SPR (Biacore), IgG captured via anti-Fc; run at end.

Assay [6] deals with T3, soluble human CD47 ectodomain protein. Kind of assay: SPR (Biacore), IgG captured via anti-Fc; run at beginning.

Some results are limits rather than exact numbers.

Sequence of human C-MET protein (ELISA coat) (P08581 25-932 limits assumed): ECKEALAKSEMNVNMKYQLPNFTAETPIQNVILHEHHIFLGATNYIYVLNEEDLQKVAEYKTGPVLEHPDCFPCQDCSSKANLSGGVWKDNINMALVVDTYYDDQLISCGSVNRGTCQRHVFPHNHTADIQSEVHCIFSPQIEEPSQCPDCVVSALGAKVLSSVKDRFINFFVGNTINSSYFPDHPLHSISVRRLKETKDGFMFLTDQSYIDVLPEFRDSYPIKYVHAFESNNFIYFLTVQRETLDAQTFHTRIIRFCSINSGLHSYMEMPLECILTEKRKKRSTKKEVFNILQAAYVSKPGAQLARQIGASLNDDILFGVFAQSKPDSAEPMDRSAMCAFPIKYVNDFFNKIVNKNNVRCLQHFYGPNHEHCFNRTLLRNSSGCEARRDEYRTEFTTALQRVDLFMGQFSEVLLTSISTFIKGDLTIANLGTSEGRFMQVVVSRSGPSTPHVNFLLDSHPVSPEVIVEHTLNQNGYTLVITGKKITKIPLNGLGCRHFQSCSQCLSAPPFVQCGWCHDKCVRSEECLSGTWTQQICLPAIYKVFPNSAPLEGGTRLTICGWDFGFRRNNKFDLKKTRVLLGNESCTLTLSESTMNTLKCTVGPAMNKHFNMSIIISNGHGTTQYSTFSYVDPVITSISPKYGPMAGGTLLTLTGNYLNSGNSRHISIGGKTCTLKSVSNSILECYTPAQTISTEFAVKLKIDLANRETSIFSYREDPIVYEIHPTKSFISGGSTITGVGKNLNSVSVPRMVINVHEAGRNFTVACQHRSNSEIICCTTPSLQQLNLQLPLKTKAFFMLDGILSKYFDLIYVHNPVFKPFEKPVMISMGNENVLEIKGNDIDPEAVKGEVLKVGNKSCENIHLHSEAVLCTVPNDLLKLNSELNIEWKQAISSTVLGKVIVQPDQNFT

B1: Fab^2 cMETCD47-L2-L2 (bispecific antibody)
heavy: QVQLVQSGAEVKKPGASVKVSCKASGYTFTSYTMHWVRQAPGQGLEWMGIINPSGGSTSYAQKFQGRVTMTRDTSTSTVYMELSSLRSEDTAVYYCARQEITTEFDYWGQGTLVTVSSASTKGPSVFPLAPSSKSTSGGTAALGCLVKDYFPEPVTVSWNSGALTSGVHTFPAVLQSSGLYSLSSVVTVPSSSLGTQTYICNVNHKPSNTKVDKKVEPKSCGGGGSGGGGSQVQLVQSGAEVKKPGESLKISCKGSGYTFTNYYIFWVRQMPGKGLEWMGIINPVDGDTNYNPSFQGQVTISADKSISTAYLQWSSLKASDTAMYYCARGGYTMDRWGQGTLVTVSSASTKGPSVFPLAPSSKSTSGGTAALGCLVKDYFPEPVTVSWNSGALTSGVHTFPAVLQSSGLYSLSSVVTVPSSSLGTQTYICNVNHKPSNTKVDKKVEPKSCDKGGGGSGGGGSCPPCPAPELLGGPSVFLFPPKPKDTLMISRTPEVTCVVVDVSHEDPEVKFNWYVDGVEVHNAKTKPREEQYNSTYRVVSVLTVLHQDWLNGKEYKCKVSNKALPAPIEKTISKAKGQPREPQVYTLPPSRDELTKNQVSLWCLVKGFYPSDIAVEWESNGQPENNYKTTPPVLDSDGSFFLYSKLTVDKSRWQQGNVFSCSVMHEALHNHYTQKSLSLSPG
light: EIVLTQSPGTLSLSPGERATLSCRASQSVSSYANSYLHWYQQKPGQAPRLLIYRGSTRESGIPDRFSGSGSGTDFTLTISRLEPEDFAVYYCQQSKSEPLTFGGGTKVEIKRTVAAPSVFIFPPSDEQLKSGTASVVCLLNNFYPREAKVQWKVDNALQSGNSQESVTEQDSKDSTYSLSSTLTLSKADYEKHKVYACEVTHQGLSSPVTKSFNRGECGGGGSGGGGSDIVMTQSPLSLPVTPGEPASISCRSSQSLLHSNGYNYLHWYLQKPGQSPQLLIYKVSNRLSGVPDRFSGSGSGTDFTLKISRVEAEDVGVYYCFQNTHTPRTFGGGTKVEIKRTVAAPSVFIFPPSDEQLKSGTASVVCLLNNFYPREAKVQWKVDNALQSGNSQESVTEQDSKDSTYSLSSTLTLSKADYEKHKVYACEVTHQGLSSPVTKSFNRGECGGGGSGGGGSCPPCPAPELLGGPSVFLFPPKPKDTLMISRTPEVTCVVVDVSHEDPEVKFNWYVDGVEVHNAKTKPREEQYNSTYRVVSVLTVLHQDWLNGKEYKCKVSNKALPAPIEKTISKAKGQPREPQVYTLPPSRDELTKNQVSLSCAVKGFYPSDIAVEWESNGQPENNYKTTPPVLDSDGSFFLVSKLTVDKSRWQQGNVFSCSVMHEALHNHYTQKSLSLSPG
B1: the “fold reduction of ability to induce agglutination in comparison to A-D5 IgG1” value in assay [1] was > 241 fold.

B2: Fab^2 cMETCD47-LHL-LHL (bispecific antibody)
heavy: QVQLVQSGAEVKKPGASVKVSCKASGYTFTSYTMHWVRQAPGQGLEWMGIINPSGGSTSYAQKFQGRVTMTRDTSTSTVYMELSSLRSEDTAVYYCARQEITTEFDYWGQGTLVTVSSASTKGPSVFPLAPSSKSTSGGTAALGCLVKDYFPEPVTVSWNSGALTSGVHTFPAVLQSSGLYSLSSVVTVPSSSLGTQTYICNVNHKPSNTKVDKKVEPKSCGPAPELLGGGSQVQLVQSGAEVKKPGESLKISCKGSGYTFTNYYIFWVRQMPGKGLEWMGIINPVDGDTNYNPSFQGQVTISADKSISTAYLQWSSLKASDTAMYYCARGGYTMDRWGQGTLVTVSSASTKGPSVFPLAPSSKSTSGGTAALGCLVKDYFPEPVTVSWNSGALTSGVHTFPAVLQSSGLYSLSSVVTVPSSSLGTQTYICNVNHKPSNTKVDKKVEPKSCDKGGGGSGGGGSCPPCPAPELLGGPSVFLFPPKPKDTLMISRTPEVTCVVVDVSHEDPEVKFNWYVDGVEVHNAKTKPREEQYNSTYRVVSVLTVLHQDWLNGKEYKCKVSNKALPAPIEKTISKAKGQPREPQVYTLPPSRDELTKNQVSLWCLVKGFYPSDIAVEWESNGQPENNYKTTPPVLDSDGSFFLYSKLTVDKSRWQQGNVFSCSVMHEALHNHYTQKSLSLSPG
light: EIVLTQSPGTLSLSPGERATLSCRASQSVSSYANSYLHWYQQKPGQAPRLLIYRGSTRESGIPDRFSGSGSGTDFTLTISRLEPEDFAVYYCQQSKSEPLTFGGGTKVEIKRTVAAPSVFIFPPSDEQLKSGTASVVCLLNNFYPREAKVQWKVDNALQSGNSQESVTEQDSKDSTYSLSSTLTLSKADYEKHKVYACEVTHQGLSSPVTKSFNRGECGPAPELLGGGSDIVMTQSPLSLPVTPGEPASISCRSSQSLLHSNGYNYLHWYLQKPGQSPQLLIYKVSNRLSGVPDRFSGSGSGTDFTLKISRVEAEDVGVYYCFQNTHTPRTFGGGTKVEIKRTVAAPSVFIFPPSDEQLKSGTASVVCLLNNFYPREAKVQWKVDNALQSGNSQESVTEQDSKDSTYSLSSTLTLSKADYEKHKVYACEVTHQGLSSPVTKSFNRGECGGGGSGGGGSCPPCPAPELLGGPSVFLFPPKPKDTLMISRTPEVTCVVVDVSHEDPEVKFNWYVDGVEVHNAKTKPREEQYNSTYRVVSVLTVLHQDWLNGKEYKCKVSNKALPAPIEKTISKAKGQPREPQVYTLPPSRDELTKNQVSLSCAVKGFYPSDIAVEWESNGQPENNYKTTPPVLDSDGSFFLVSKLTVDKSRWQQGNVFSCSVMHEALHNHYTQKSLSLSPG
notes: also called Met47-LHL-LHL; clone 6
B2: in assay [2], the “fold reduction of ability to bind CD47 in comparison to A-D5 IgG1” value was > 1000 fold. Besides, the binding result in assay [3] was “binds”. The “fold reduction of ability to induce agglutination in comparison to A-D5 IgG1” value in assay [1] was > 241 fold.

B3: Fab^2 Met47 LHL-LHL (as used in the Tg32 mouse studies) (bispecific antibody, not shown: a dimerising Fc or GST)
heavy: QVQLVQSGAEVKKPGASVKVSCKASGYTFTSYTMHWVRQAPGQGLEWMGIINPSGGSTSYAQKFQGRVTMTRDTSTSTVYMELSSLRSEDTAVYYCARQEITTEFDYWGQGTLVTVSSASTKGPSVFPLAPSSKSTSGGTAALGCLVKDYFPEPVTVSWNSGALTSGVHTFPAVLQSSGLYSLSSVVTVPSSSLGTQTYICNVNHKPSNTKVDKKVEPKSCGPAPELLGGGSQVQLVQSGAEVKKPGESLKISCKGSGYTFTNYYIFWVRQMPGKGLEWMGIINPVDGDTNYNPSFQGQVTISADKSISTAYLQWSSLKASDTAMYYCARGGYTMDRWGQGTLVTVSS
light: EIVLTQSPGTLSLSPGERATLSCRASQSVSSYANSYLHWYQQKPGQAPRLLIYRGSTRESGIPDRFSGSGSGTDFTLTISRLEPEDFAVYYCQQSKSEPLTFGGGTKVEIKRTVAAPSVFIFPPSDEQLKSGTASVVCLLNNFYPREAKVQWKVDNALQSGNSQESVTEQDSKDSTYSLSSTLTLSKADYEKHKVYACEVTHQGLSSPVTKSFNRGECGPAPELLGGGSDIVMTQSPLSLPVTPGEPASISCRSSQSLLHSNGYNYLHWYLQKPGQSPQLLIYKVSNRLSGVPDRFSGSGSGTDFTLKISRVEAEDVGVYYCFQNTHTPRTFGGGTKVEIK
Regarding B3, the binding result in assay [4] is given as “no binding (tested: 10 µg/ml)”.

B4: A-D5 anti-CD47 IgG1 (antibody, V domains shown)
VH: QVQLVQSGAEVKKPGESLKISCKGSGYTFTNYYIFWVRQMPGKGLEWMGIINPVDGDTNYNPSFQGQVTISADKSISTAYLQWSSLKASDTAMYYCARGGYTMDRWGQGTLVTVSS
VL: DIVMTQSPLSLPVTPGEPASISCRSSQSLLHSNGYNYLHWYLQKPGQSPQLLIYKVSNRLSGVPDRFSGSGSGTDFTLKISRVEAEDVGVYYCFQNTHTPRTFGGGTKVEIK
notes: also called A-D5 IgG1; A-D5 CD47 IgG
Turning to B4, in assay [5], the dissociation constant Kd (as a rule, the equilibrium constant for the complex coming apart) was 1.32 nM; the off-rate constant (koff) (usually the rate constant with which the complex falls apart) was 0.00103 s⁻¹; the on-rate constant (kon) (commonly the second-order rate constant of association) turned out to be 775000 M⁻¹ s⁻¹. Moreover, in assay [6], the dissociation constant (Kd) is 1.29 nM, the koff was determined as 0.00107 s⁻¹ and the kon stood at 833000 M⁻¹ s⁻¹.
